Laboratory results taken from the supplement of paper PMC9170038.

Tested on: MS2 coat protein
Experiment: apparent KD of MS2 coat protein; designed switch direction (-1 OFF switch, 1 ON switch): 1; higher = weaker reporter binding
Method in brief: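 RNA switches sharing common flanks were transcribed by stalled E. coli RNA polymerase on Illumina chips. A doubling series of SNAP-549-labelled MS2 coat protein, from 0.7 or 1.5 nM to 3 µM, was applied in Tris-HCl pH 7.5 buffer with KCl, MgCl2, BSA, DTT, tRNA and Tween-20. Each step lasted 0.8–1.5 h at the bottom of the series and 10–20 min at the top. Normalised cluster fluorescence was curve-fitted, giving apparent KD as the per-design median over clusters.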

[1] = Eterna round: R95, input ligand: FMN 200 uM
[2] = Eterna round: R95, input ligand: microRNA oligo, concentration not stated
[3] = Eterna round: R95, input ligand: none
[4] = input ligand: microRNA oligo, concentration not stated

Sequence	apparent KD of MS2 coat protein [1] [nM]	apparent KD of MS2 coat protein [2] [nM]	apparent KD of MS2 coat protein [3] [nM]	apparent KD of MS2 coat protein (input ligand: FMN 200 uM) [nM]	apparent KD of MS2 coat protein [4] [nM]	apparent KD of MS2 coat protein (input ligand: none) [nM]
GGAGCCGGUACUGAGGAUAUUCAUAUUAAAACAUGAGGAUCACCCAUGUAGGCCGGAAGGCCUUGGGAGAAGGCAGACCAGCUCG [Atgexeedri - 7] (puzzle: Same State 2)	23.1	255	441	–	–	–
GGAGCCGGUACUGAGGAUAUUCAUAUUAAAACAUGAGGAUCACCCAUGUGGGCCAGAAGGCCUUGGGAGAAGGCAGAUCGGCUCC [Biseusra - 3] (puzzle: Same State 2)	19	93.3	145	–	–	–
GGAGGACAUGAGGAUCACCCAUGUAAAUGGGCGCUAGGAUAUGCGAGAGGGUGGAGAGGAGCAGAAGGAGUGGAUA [JR_SS1_Sub039] (puzzle: Same State 1)	105	180	207	–	–	–
GGAGGACAUGAGGAUCACCCAUGUAGAUGGGCGCUAGGAUAUGCGAGAGGGUAGAGAGAAGCAGAAGGAGUGGAUU [JR_SS1_Sub041] (puzzle: Same State 1)	156	259	214	–	–	–
GGAUCAUGACGAGGAUAUGGUACAUGAGGAUCACCCAUGUAUGUACCAUAACGCGUACGACGAAACCAGAAGGCGUCGUGGUCG [Mat - Same State NG 2 - JL mod - D40] (Eterna round: R96, puzzle: Same State NG 2)	–	–	–	9.88	21	28
GGAUGAUAGACAGGAUAUUGAAUGUAAAUAGGACAAGAAGGGUCAAUGAUUUAAACGACCAGUUACAUGAGGAUCACCCAUGUU [JR_SSNG1_Sub024] (Eterna round: R96, puzzle: Same State NG 1)	–	–	–	29.4	36.7	36.6
GGAUGAUAGACAGGAUAUUGAAUGUAAUUAGGACAAGAAGGGUCAAUGAUUUAAACGACCAGUUACAUGAGGAUCACCCAUGUU [JR_SSNG1_Sub025] (Eterna round: R96, puzzle: Same State NG 1)	–	–	–	44.9	38.1	49.1
GGAUGAUGGACAGGAUAUUGAUUUUAAUGGUUUCAAGAAGGGUCUUUGAUUUAAACGACCAGUUACAUGAGGAUCACCCAUGUU [JR_SSNG1_Sub032] (Eterna round: R96, puzzle: Same State NG 1)	–	–	–	40.1	36.1	52
GGAUGAUUAAUAGGAUAUUAUUUGUAAAUUGGUUAAGAAGGAUUAAUGAUUUAAACGACCUGUUACAUGAGGAUCACCCAUGUU [JR_SSNG1_Sub090] (Eterna round: R96, puzzle: Same State NG 1)	–	–	–	–	33.2	–
GGCAUACAUGAGGAUCACCCAUGUUCAACCUAGAUAGGAUAUGGGCCUCUUGUAUUAGGCCCAGAAGGAUCUGUAA [Regea] (puzzle: Same State 1)	–	86.4	–	–	–	–
GGCCGGAGUCAAGGAUAUGCUACCGUUUCGGUAGCAGAAGGUGAUCACAUGAGGAUCACCCAUGUUUACUGGGAGACCACGGCC [JL SSNG1 3.70] (Eterna round: R96, puzzle: Same State NG 1)	–	–	–	105	134	166
GGCCUCUGUCAAGGAUAUGCUACCGUUUCGGUAGCAGAAGGUGAUCACAUGCGGGUCACCCAUGUUUAGGCCAACAGGCCCGCC (Eterna round: R96, puzzle: Same State NG 1)	–	–	–	63	1.08	3.57
GGCCUGCCGCAAGGAUAUGAAGCUUUCGCUCCGUCAGAAGGUGCACAUGAGGAUCACCCAUGUAGGCAGGCCAAGAACUAAAAC [Veveanus] (Eterna round: R96, puzzle: Same State NG 1)	–	–	–	213	42	123
GGCGUAUAAACAUGAGGAUCACCCAUGUAGCGGAGACGCAAUGAGGAUAUCGAUGGGUUUCCCGUCGAGAAGGCAUGGGUCGCC [JL SSNG3 3.93] (Eterna round: R96, puzzle: Same State NG 3)	–	–	–	17	79.9	105
GGCUAUCGCGUACGAUAGCUUAAGCAUGUACAUGAGGAUCACCCAUGUCAUGUACAGGCUUUUUGCUCGUCUUAUUG [JL-shm-2.35 JL mod] (puzzle: Sensor for hsa-mir-208a)	517	17	467	–	–	–
GGCUAUCGCGUACGAUAGCUUAGGCAUGUACAUGAGGAUCACCCAUGUCAUGUACAGGCUUGUUGCUCGUCUUAUUG [JL-shm-2.37 JL mod] (puzzle: Sensor for hsa-mir-208a)	202	15.8	291	–	–	–

Sequence	apparent KD of MS2 coat protein [1] [nM]	apparent KD of MS2 coat protein [2] [nM]	apparent KD of MS2 coat protein [3] [nM]	apparent KD of MS2 coat protein (input ligand: FMN 200 uM) [nM]	apparent KD of MS2 coat protein [4] [nM]	apparent KD of MS2 coat protein (input ligand: none) [nM]
GGGAAACCUCAAGGAUAUGCUACCGUUUCGGUAGCAGAAGGUGAUCACAUGAGGAUCACCCAUGUAUGCAUGCGUGAGCGUGCU [JL SSNG1 3.57] (Eterna round: R96, puzzle: Same State NG 1)	–	–	–	42.6	71.3	47
GGGAGACAUGAGGAUCACCCAUGUGGGAGGGAACGAGGAUAUGUAAGGAGAAAGAAUAGAACAGAAGGCGUAGGUG [JR_SS1_Sub021] (puzzle: Same State 1)	35.8	55.5	60.8	–	–	–
GGGAGAGACGCAGGAUAUGGUGAGGAUUACCCACUAGAAGGGUGGACAUGAGAAUCGAACAUGAGGAUCACCCAUGUUCUGAGG (Eterna round: R96, puzzle: Same State NG 1)	–	–	–	64	44.3	66
GGGAGAGACGGAGGAUAUGGUGGGAGAUAGGGACUAGAAGGUUGGACAUGAGAAUCGAACAUGAGGAUCACCCAUGUUGGGAGG [iteri-3] (Eterna round: R96, puzzle: Same State NG 1)	–	–	–	51	28.3	63.2
GGGAGAGGCGCAGGAUAUGGUGAGGAUCACCCACUAGAAGGGUGCACAUGAGAAUCGGACAUGAGGAUCACCCAUGUCCGGCGC (Eterna round: R96, puzzle: Same State NG 1)	–	–	–	375	143	445
GGGCCAGCCUGUGCUGGGCCUUCGCAUGCACAUGAGGAUCACCCAUGUCGUGUACAUGCUUUUUGCUCGUCUUUAAA [Photon Torp-10] (puzzle: Sensor for hsa-mir-208a)	40.9	12.6	42.7	–	–	–
GGGCCAGCUUGUGCUGGGCCUUCGCAUGCACAUGAGGAUCACCCAUGUCGUGUACAUGCUUGGUGCUCGUCUUUAAA [Photon Torp-12] (puzzle: Sensor for hsa-mir-208a)	399	15.7	266	–	–	–
GGGCCAGCUUUUGCUGGGCCAAAGCUUGCACAUGAGGAUCACCCAUGUCGUGUACACGCUUCCUGCCCGUCUUGUUU [Photon Torp-20] (puzzle: Sensor for hsa-mir-208a)	26.5	16.6	29.4	–	–	–
GGGCUCUACGGAGGAUAUUCAACACAUGAGGAUCACCCAUGUCAGCCUCCCUGAUCCAGGGAAGCGAAGAAGGCUGCGAGGACG [Eternabot solution 35] (Eterna round: R96, puzzle: Same State NG 2)	–	–	–	29.1	21.8	34.5
GGUAAACAUGAGGAUCACCCAUGUAAUAAUAUGGGAGGAUAUGGGAAUUAAUUAAUUAAACCAGAAGGCCUAAUUG [Mat - Same State 1 - D85] (Eterna round: R96, puzzle: Same State 1)	–	–	–	32	104	135
GGUAAACAUGAGGAUCACCCAUGUAAUAAUAUGGGAGGAUAUGGGAAUUAAUUAAUUAAACCAGAAGGCCUAAUUG [Mat - Same State 1 - D85] (puzzle: Same State 1)	–	167	–	–	–	–
GGUACCAACACAGGAUAUGCUAUCCUUUGGGUAGCAGAAGGGUGGUACAUGAGGAUCACCCAUGUGGUGCCAGGGCGUGAGCCC [JL SSNG1 1.95] (Eterna round: R96, puzzle: Same State NG 1)	–	–	–	383	1190	4440
GGUAGGUUACUACCAAACAUGAGGAUCACCCAUGUAAAUGGGAAGGAUAUGGUACCUAUUUGGUACCAGAAGGUCUAAAUAAUU [Mat - Same State NG 3 - JL Mod - D94] (Eterna round: R96, puzzle: Same State NG 3)	–	–	–	392	821	1020
GGUAGGUUACUACCAAACAUGAGGAUCACCCAUGUAAGUGGGAAGGAUAUGGUACCGAAACGGUACCAGAAGGUCCAUAUAGUA [Mat - Same State NG 3 - JL Mod - D100] (Eterna round: R96, puzzle: Same State NG 3)	–	–	–	324	564	1100
GGUAGGUUACUACCAAACAUGAGGAUCACCCAUGUAAGUGGGAAGGAUAUGGUACCUAUUUGGUACCAGAAGGUCUAAUUAAUU [Fiskers NG3ss - 2] (Eterna round: R96, puzzle: Same State NG 3)	–	–	–	444	59.9	1230
GGUAGGUUACUACCAAACAUGAGGAUCACCCAUGUAAGUGGGAAGGAUAUGGUACCUUUUAGGUACCAGAAGGUCCAUAUAUUU [JL Fiskers NG3ss - 2 mod 8] (Eterna round: R96, puzzle: Same State NG 3)	–	–	–	231	847	1140
